Data reported in US20230046828A1 (OXFORD UNIVERSITY INNOVATION, published 2023).
Substitutions are numbered along the chain they refer to.

B1: FR-HMGB1 Box B 89-174 (full HMG Box with flanking regions) (ligand)
chain: SMKDPNAPKRPPSAFFLFCSEYRPKIKGEHPGLSIGDVAKKLGEMWNNTAADDKQPYEKKAAKLKEKYEKDIAAYRAKGKPDAAKKGV
modifications: biotinylated in BLI and NMR
notes: also called complete Box B; not shown: C-terminal biotinylation tag
B2: fully-reduced HMGB1, full-length (1-214) (ligand)
chain: GKGDPKKPRGKMSSYAFFVQTCREEHKKKHPDASVNFSEFSKKCSERWKTMSAKEKGKFEDMAKADKARYEREMKTYIPPKGETKKKFKDPNAPKRPPSAFFLFCSEYRPKIKGEHPGLSIGDVAKKLGEMWNNTAADDKQPYEKKAAKLKEKYEKDIAAYRAKGKPDAAKKGVVKAEKSKKKKEEEEDEEDEEDEEEEEDEEDEDEEEDDDDE
modifications: cysteines reduced (Cys 22, Cys 44, Cys 105)
notes: Tags differ by assay: biotinylated (c011) in BLI with CXCL12, His6-tagged in the reverse peptide array, TEV-cleaved in the RAGE ELISA and BLI; also called FR-HMGB1; FR FL-HMGB1 (c011)
B3: non-oxidizable 3S-HMGB1, full-length (1-214) (ligand)
chain: B2 chain with C22S, C44S, C105S
notes: Biotinylated (c022) in BLI with CXCL12, His6-tagged in the reverse peptide array; also called 3S-FL HMGB1 (c022)
B4: FR-HMGB1 Box A 8-78 (helical-only) (ligand)
chain: PRGKMSSYAFFVQTCREEHKKKHPDASVNFSEFSKKCSERWKTMSAKEKGKFEDMAKADKARYEREMKTYI
modifications: biotinylated in BLI
notes: also called minimal Box A 8-78; c027; not shown: biotinylation tag (BLI) or His6 tag (reverse peptide array)
B5: FR-HMGB1 Box B 94-162 (helical-only) (ligand)
chain: PKRPPSAFFLFCSEYRPKIKGEHPGLSIGDVAKKLGEMWNNTAADDKQPYEKKAAKLKEKYEKDIAAYR
modifications: also: biotin or His6 tag in some assays, sequence not given here
notes: also called HMGB1A-c028; not shown: C-terminal Avi / biotinylation tag (BLI, NMR) or His6 tag (reverse peptide array)
B6: FR-HMGB1 Box A 1-88 (full HMG Box with flanking regions) (ligand)
chain: GKGDPKKPRGKMSSYAFFVQTCREEHKKKHPDASVNFSEFSKKCSERWKTMSAKEKGKFEDMAKADKARYEREMKTYIPPKGETKKKF
modifications: biotinylated in BLI
notes: also called extended box A 1-88; c037; not shown: biotinylation tag
B7: DS-HMGB1 1-184 (ligand)
chain: GKGDPKKPRGKMSSYAFFVQTCREEHKKKHPDASVNFSEFSKKCSERWKTMSAKEKGKFEDMAKADKARYEREMKTYIPPKGETKKKFKDPNAPKRPPSAFFLFCSEYRPKIKGEHPGLSIGDVAKKLGEMWNNTAADDKQPYEKKAAKLKEKYEKDIAAYRAKGKPDAAKKGVVKAEKSKKKK
modifications: oxidized Box A (disulfide Cys 22-Cys 44)
B8: disulfide HMGB1, full-length (ligand)
chain: B2 chain
modifications: disulfide bond between Cys 22 and Cys 44
notes: also called DS-HMGB1; FL-DS-HMGB1
B9: DS-HMGB1 1-164 (ligand)
chain: GKGDPKKPRGKMSSYAFFVQTCREEHKKKHPDASVNFSEFSKKCSERWKTMSAKEKGKFEDMAKADKARYEREMKTYIPPKGETKKKFKDPNAPKRPPSAFFLFCSEYRPKIKGEHPGLSIGDVAKKLGEMWNNTAADDKQPYEKKAAKLKEKYEKDIAAYRAK
modifications: oxidized Box A (disulfide Cys 22-Cys 44)
B10: DS Box A 1-88 (full HMG Box construct with flanking regions) (ligand)
chain: B6 chain
modifications: oxidized (disulfide Cys 22-Cys 44)
notes: also called oxidized Box A alone
B11: dBB12L (double Box B HMGB1 construct with 12-residue linker) (ligand)
chain: KDPNAPKRPPSAFFLFCSEYRPKIKGEHPGLSIGDVAKKLGEMWNNTAADDKQPYEKKAAKLKEKYEKDIAAYRAKGKPDAAKKGVKDPNAPKRPPSAFFLFCSEYRPKIKGEHPGLSIGDVAKKLGEMWNNTAADDKQPYEKKAAKLKEKYEKDIAAYRAKGKPDAAKKGV
notes: also called dBB12L-HMGB1; dBB-HMGB1

The binders below were run against T1, CXCL12 (CXC Ligand 12) (UniProt O62657 22-89) (assay: BLI, biotinylated HMGB1 construct on streptavidin sensor, CXCL12 0-150 µM in solution; Michaelis-Menten (saturation) Req fit).
T1 construct: mature; Untagged in BLI and NMR; CXCL12-His6 was used at 1 µM on the HMGB1 SPOT peptide arrays; also called CXCL12A-c021, wt 1-67, no tag; CXCL12-His6
T1 sequence (P48061 22-89): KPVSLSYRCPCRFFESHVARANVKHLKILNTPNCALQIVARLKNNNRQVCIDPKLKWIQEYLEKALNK
Method: (§1) Pre-hydrated streptavidin Octet Biosensors (FortéBio 18-5019) were coated with 4 μM solutions of biotinylated HMGB1 proteins in 10 mM HEPES, pH 7.5, 150 mM NaCl (Base buffer-BB) plus, 0.5 mM TCEP (60″ baseline, 60″ binding). Nonspecific binding was minimized by incubation for 3′ in BB+1% BSA+0.05% Tween-20 (Kinetics Buffer, KB) prior to kinetics assays. […] An OctetRed 384 instrument was used for these experiments. Kinetics data were extracted with DataAnalysis 9.0 (FortéBio). Response at equilibrium REq was plotted against concentration in a Michaelis-Menten saturation plot to calculate kD/Bₘₐₓ (saturation plot of concentration against rEq). Kinetic rates (association rate; kₒₙ and dissociation rate; koff) were derived from the direct measurements of each parameter from all the association and dissociation steps in the interferogram, and fitted to a horizontal line (mean) across all measurements. Data from each replicate run were pooled in the same manner to calculate the overall mean. For measuring RAGE binding kinetics to HMGB1, 15 μg/mL RAGE-Fc in PBS+0.1% BSA+0.02% Tween-20 was immobilized on the surface of anti-IgG biosensors (AHC, 18-5060) over 30″ and dipped in serial concentrations of each HMGB1 construct (60″ baseline, 200″ association/dissociation) and fitted in the same manner to derive kinetic parameters.
Binder B1 has a Kd of 8.19 µM.
B2 showed a Kd of 15.3 µM.
Work on B3 yielded a Kd of 8.79 µM.
B4 was tested, and the Kd was 17.5 µM.
With B5 the Kd was 65 µM.
B6 was tested, and the Kd was 12.6 µM.

What follows are binders tested against T1, CXCL12 (CXC Ligand 12) (assay: BLI, biotinylated HMGB1 construct on streptavidin sensor, CXCL12 0-150 µM in solution; kinetics rates derived from interferogram).
Method: as §1
B1 gave a Kd of 7.1 µM, a koff of 0.159 s⁻¹ and a kon of 22000 M⁻¹ s⁻¹.
For B2, the Kd was 20.9 µM, the koff was 0.181 s⁻¹ and the kon was 9000 M⁻¹ s⁻¹.
Work on B3 yielded a Kd of 11.7 µM, a koff of 0.145 s⁻¹ and a kon of 12000 M⁻¹ s⁻¹.
With B4 the Kd was 18.7 µM, the koff was 0.312 s⁻¹ and the kon was 17000 M⁻¹ s⁻¹.
B5 gave a Kd of 39 µM, a koff of 0.64 s⁻¹ and a kon of 16000 M⁻¹ s⁻¹.
In the case of B6, the Kd is reported as 6.1 µM, the koff is reported as 0.079 s⁻¹ and the kon is reported as 13000 M⁻¹ s⁻¹.

These binders were tested against T2, RAGE-Fc chimera protein (BioTechne, 1145-RG) (UniProt Q15109 24-344) (assay: BLI: RAGE-Fc on AHC sensors, HMGB1 construct 0-25 µM in solution; saturation fit).
T2 construct: Bought reagent; also called Fc-RAGE; not shown: CH domain of IgG (Fc)
T2 sequence (Q15109 24-344, change not shown): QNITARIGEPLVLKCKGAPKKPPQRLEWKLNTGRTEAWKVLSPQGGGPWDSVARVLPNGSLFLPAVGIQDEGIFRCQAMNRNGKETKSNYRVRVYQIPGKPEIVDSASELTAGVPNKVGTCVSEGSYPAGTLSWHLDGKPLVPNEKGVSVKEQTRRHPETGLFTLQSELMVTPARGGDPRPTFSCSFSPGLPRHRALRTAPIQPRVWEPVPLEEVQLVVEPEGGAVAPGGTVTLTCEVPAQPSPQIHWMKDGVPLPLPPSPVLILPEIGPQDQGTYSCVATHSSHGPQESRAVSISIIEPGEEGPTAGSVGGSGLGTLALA
Method: (§2) RAGE-Fc was immobilized in the surface of AHC sensors and dipped in rising concentration of different HMGB1 constructs. Two experiments were run with different concentration ranges: the three columns of graphs in the left, 0 to 22.22 μM HMGB1 over 9 steps; on the right, 0 to 25 μM over 7 steps. Both are color-coded by concentration (top). Colors indicate the specific construct concentration. Each graph corresponds to a single sensor (replicate).
as §1
With B7 the Kd was 0.5 µM.
For B2, the Kd was 2.3 µM.
Binder B8 has a Kd of 1.3 µM.
Binder B3 has a Kd of 3 µM.
B9 showed a Kd of 3.1 µM.
With B10 the Kd was 53.4 µM.
In the case of B11, the Kd is reported as 5.5 µM.

The binders below were run against T2, RAGE-Fc chimera protein (BioTechne, …) (assay: BLI, RAGE-Fc on AHC sensors).
Method: as §1
B8 gave a Kd of 0.2 to 1.3 µM.
With B11 the “fold association rate against FR-HMGB1” value was 3 fold and the “fold dissociation rate against FR-HMGB1” value was 5 fold.

Each binder was assayed against T2, RAGE-Fc chimera protein (BioTechne, …) (assay: hybrid ELISA: HMGB1 construct coated, RAGE-Fc titrated, anti-human IgG-HRP, OD450 normalized to DS-HMGB1; saturation fit).
Method: (§3) Nonspecific binding was blocked by incubation with 10% BSA in PBS for 2 h, at 20-25° C. A concentration range of RAGE-Fc chimera protein (BioTechne, 1145-RG; 0-640 nM in 1:4 dilutions) was added in 10% BSA/PBS and allowed to bind for 2 h, at 4° C. Bound FC chimera was detected by incubation with Anti-Human IgG HRP (Agilent Dako P021402-2) diluted 1:10000 in 1% BSA/PBS for 2 h, at 20-25° C. Between each of these 3 steps, the plate was washed with 100 μL PBST, three times.
(§4) OD 450 was measured as a readout (FluoStar OMEGA, BMG Labtech) and plotted as a saturation fit against 2× RAGE-Fc concentration (as the chimera is a RAGE dimer).
B7 showed a Kd of 0.0339 µM.
For B2, the Kd was 0.0861 µM.
Work on B8 yielded a Kd of 0.00435 µM.
In the case of B3, the Kd is reported as 0.00722 µM.

These binders were tested against T2, RAGE-Fc chimera protein (BioTechne, …) (assay: BLI: RAGE-Fc on AHC sensors, HMGB1 construct 0-25 µM in solution; kinetics plot).
Method: as §2, §1
B7 was tested, and the Kd was 0.2 µM, the koff was 0.067 s⁻¹ and the kon was 349000 M⁻¹ s⁻¹.
Work on B2 yielded a Kd of 0.8 µM, a koff of 0.041 s⁻¹ and a kon of 51000 M⁻¹ s⁻¹.
B8 showed a Kd of 0.2 µM, a koff of 0.043 s⁻¹ and a kon of 215000 M⁻¹ s⁻¹.
For B3, the Kd was 0.9 µM, the koff was 0.015 s⁻¹ and the kon was 17000 M⁻¹ s⁻¹.
B9 gave a Kd of 0.9 µM, a koff of 0.152 s⁻¹ and a kon of 178000 M⁻¹ s⁻¹.
For B10, the Kd was 15.6 µM, the koff was 0.439 s⁻¹ and the kon was 28000 M⁻¹ s⁻¹.
Work on B11 yielded a Kd of 1.3 µM, a koff of 0.206 s⁻¹ and a kon of 164000 M⁻¹ s⁻¹.

These binders were tested against T2, RAGE-Fc chimera protein (BioTechne, …) (assay: hybrid ELISA: HMGB1 construct coated, RAGE-Fc titrated, anti-human IgG-HRP, OD450 normalized to DS-HMGB1; saturation fit (Kd cell: Invalid fit)).
Method: as §3, §4
Work on B9 yielded a Bmax of 0.2 nM.
B10 was tested, and the Bmax was 0.08 nM.
Work on B11 yielded a Bmax of 0.06 nM.
